{"source": "patent US20130078251A1", "about": "(Hoffmann-La Roche, published 2013)", "key": {"[1]": {"biological_target": "T1, recombinant D3 domain of MCSP (UniProt Q6UVK1 1582-2224, limits assumed)", "T1 construct": "domain: D3 domain; also called MCSP D3", "T1 sequence (looked up)": "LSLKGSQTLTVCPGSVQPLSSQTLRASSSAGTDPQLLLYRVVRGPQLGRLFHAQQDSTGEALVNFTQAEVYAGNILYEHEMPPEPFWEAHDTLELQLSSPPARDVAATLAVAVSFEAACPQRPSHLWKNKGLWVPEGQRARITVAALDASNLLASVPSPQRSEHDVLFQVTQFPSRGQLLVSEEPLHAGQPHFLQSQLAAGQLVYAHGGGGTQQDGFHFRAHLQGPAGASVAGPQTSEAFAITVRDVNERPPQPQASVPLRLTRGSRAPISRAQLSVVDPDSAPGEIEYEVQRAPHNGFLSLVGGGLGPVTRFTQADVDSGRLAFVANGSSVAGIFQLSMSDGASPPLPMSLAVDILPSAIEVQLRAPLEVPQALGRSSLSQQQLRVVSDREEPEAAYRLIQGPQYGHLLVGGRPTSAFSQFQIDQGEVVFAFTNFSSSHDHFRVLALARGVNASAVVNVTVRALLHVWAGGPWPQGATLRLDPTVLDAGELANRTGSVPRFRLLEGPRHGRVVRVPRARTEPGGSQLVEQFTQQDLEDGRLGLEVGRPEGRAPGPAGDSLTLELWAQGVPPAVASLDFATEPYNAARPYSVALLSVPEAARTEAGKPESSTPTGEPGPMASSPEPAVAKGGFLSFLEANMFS", "assay": "Biacore T100, antibody amine-coupled on CM5 chip, MCSP D3 as analyte, 1:1 model, 37 °C", "description": "(§1) The monovalent binding affinities for the chimeric LC007 and the humanized variant M4-3 ML2 were determined using a Biacore assay. Briefly, the antibodies were chemically immobilized on a CM5 chip (Biacore) via amine-coupling (activation with EDC-NHS, coupling of 5000 RU for each antibody, deactivation with ethanolamine). The recombinant D3 domain of MCSP was used as analyte. The experiment was performed at 25° and 37° in HBS-EP+ running buffer on a Biacore T100. […] The surface was regenerated between injections with 10 mM glycine pH 2 for 30 s. The sensorgrams were fitted with the 1:1 binding model (with RI=0 and Rmax=local) to determine the Kd."}, "[2]": {"biological_target": "T1, recombinant D3 domain of MCSP", "assay": "Biacore T100, antibody amine-coupled on CM5 chip, MCSP D3 as analyte, 1:1 model, 25 °C", "description": "as §1"}, "[3]": {"biological_target": "T2, human MCSP (melanoma chondroitin sulfate proteoglycan) on melanoma cells (human, UniProt Q6UVK1 30-2322)", "T2 construct": "Endogenous MCSP of human melanoma cell lines; also called surface MCSP; native form of MCSP", "T2 sequence (Q6UVK1 30-2322 limits assumed)": "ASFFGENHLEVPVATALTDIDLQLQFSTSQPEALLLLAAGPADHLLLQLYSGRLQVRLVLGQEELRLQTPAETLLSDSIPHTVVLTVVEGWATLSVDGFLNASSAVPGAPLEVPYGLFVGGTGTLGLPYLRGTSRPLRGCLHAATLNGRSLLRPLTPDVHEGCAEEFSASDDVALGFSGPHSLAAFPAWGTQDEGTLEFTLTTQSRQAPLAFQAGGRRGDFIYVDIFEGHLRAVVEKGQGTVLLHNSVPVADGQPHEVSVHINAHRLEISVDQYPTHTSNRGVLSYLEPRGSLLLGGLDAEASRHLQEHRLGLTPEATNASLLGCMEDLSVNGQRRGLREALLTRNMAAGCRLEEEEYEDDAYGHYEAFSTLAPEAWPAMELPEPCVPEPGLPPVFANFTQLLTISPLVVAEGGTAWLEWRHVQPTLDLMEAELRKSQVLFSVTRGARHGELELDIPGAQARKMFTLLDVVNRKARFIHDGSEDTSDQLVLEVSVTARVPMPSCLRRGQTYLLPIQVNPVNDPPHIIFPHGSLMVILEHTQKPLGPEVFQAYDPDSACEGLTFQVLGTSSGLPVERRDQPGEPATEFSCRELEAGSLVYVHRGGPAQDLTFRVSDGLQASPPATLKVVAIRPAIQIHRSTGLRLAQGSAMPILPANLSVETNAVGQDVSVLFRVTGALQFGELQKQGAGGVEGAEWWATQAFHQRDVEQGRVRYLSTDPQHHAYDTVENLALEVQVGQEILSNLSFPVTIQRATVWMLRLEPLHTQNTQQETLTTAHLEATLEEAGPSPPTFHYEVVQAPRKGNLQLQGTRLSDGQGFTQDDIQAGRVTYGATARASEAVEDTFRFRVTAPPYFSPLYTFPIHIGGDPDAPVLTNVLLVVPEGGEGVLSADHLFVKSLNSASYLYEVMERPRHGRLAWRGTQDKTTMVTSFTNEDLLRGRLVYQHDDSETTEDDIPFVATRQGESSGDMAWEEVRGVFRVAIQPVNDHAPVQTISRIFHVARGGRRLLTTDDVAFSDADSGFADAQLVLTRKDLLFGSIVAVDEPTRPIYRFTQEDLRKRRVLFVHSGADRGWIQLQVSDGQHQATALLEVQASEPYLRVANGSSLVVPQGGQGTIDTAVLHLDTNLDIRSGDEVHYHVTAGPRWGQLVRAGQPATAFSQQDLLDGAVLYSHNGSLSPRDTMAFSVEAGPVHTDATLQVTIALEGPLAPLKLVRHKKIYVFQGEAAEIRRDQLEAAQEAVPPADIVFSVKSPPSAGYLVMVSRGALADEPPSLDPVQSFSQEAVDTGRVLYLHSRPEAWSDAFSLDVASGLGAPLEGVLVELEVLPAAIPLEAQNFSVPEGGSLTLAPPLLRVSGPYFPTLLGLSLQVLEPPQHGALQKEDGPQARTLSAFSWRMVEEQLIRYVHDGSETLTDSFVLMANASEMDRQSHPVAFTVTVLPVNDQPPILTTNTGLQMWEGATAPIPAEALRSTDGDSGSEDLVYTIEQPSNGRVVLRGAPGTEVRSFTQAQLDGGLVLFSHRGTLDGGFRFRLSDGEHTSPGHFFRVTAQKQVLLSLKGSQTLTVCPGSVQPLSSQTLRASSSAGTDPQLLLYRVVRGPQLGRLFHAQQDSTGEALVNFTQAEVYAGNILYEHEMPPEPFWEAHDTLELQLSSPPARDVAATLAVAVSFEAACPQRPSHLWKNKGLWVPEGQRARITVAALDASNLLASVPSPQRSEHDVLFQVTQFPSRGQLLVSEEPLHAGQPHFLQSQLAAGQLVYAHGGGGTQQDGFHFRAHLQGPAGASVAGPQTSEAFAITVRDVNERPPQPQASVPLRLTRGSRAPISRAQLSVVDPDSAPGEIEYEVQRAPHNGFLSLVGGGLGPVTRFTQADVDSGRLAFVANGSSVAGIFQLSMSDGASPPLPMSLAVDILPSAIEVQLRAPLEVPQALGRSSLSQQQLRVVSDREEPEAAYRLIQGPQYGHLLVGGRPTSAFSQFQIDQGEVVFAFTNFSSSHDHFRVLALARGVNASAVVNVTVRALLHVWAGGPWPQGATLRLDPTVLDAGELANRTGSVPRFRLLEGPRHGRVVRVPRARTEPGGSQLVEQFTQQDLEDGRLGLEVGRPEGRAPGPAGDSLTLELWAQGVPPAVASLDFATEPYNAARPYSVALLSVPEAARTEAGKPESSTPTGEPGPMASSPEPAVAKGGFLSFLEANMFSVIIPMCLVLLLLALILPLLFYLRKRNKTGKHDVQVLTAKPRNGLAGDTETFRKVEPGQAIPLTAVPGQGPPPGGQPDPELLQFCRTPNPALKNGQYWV", "assay": "FACS titration on A2058 melanoma cells, FITC anti-human IgG Fc secondary antibody", "description": "(§2) Binding activity was determined by the following method. Target cells were detached from culture flask with cell dissociation buffer, counted and checked for viability. Cells were resuspended and adjusted to 1.111×10⁶ (viable) cells/ml in PBS-0.1% BSA. 180 μl of this suspension were transferred to each well (200,000 cells/well) in a round bottom 96-well-plate, centrifuged for 4 min, at 400 g, and resuspended. 20 μl of antibody dilutions in PBS-0.1% BSA (from 10 μg/ml to 0.002 μg/ml) were added to each well. The samples were centrifuged for 4 min, at 400 g, and resuspended. Secondary antibody, FITC-conjugated AffiniPure F(ab′)2 fragment goat anti-human IgG Fcg Fragment Specific (Jackson Immuno Research Lab #109-096-098)), was added and the sample centrifuged for 4 min, at 400 g, and resuspended. Fluorescence was measured in flow cytometer (e.g. FACS Canto II). Antibody 9.2.27, described in Morgan A C Jr, Galloway D R, Reisfeld R A. Hybridoma. 1981; 1(1):27-36.; GenBank Accession Numbers: GI:20797193 and GI:20797189 for light and heavy chain respectively, was used as a reference (FIG. 2). Human melanoma cell-lines Colo38, A2058, and A375 were used. Giacomini et al. 1985 (for Colo38). Marquardt H, Todaro G J. J Biol Chem. 1982 May 10; 257(9):5220-5 (for A2058). Geiser M, Schultz D, Le Cardinal A, Voshol H, García-Echeverría C. Cancer Res. 1999 Feb. 15; 59(4):905-10 (for A375)."}, "[4]": {"biological_target": "T2, human MCSP (melanoma chondroitin …)", "assay": "FACS titration on Colo38 melanoma cells, FITC anti-human IgG Fc secondary antibody", "description": "as §2"}, "[5]": {"biological_target": "T3, Construct 1, CSPG repeat 15 of human MCSP with the original transmembrane region (human, UniProt Q6UVK1 2044-2246)", "T3 construct": "Expressed on HEK-EBNA cells; also called construct including only the MCSP repeat 15 and the natural transmembrane domain", "T3 sequence": "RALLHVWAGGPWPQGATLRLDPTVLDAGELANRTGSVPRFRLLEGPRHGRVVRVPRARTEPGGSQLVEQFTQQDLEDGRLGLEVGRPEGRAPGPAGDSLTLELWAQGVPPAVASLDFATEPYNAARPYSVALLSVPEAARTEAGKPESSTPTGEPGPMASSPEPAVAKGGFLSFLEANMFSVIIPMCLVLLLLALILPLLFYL", "assay": "FACS titration on HEK-EBNA cells transfected with the construct"}, "[6]": {"biological_target": "T4, Construct 4, CSPG repeat 12-15 of human MCSP with the original transmembrane region (human, UniProt Q6UVK1 1702-2246)", "T4 construct": "Expressed on HEK-EBNA cells", "T4 sequence": "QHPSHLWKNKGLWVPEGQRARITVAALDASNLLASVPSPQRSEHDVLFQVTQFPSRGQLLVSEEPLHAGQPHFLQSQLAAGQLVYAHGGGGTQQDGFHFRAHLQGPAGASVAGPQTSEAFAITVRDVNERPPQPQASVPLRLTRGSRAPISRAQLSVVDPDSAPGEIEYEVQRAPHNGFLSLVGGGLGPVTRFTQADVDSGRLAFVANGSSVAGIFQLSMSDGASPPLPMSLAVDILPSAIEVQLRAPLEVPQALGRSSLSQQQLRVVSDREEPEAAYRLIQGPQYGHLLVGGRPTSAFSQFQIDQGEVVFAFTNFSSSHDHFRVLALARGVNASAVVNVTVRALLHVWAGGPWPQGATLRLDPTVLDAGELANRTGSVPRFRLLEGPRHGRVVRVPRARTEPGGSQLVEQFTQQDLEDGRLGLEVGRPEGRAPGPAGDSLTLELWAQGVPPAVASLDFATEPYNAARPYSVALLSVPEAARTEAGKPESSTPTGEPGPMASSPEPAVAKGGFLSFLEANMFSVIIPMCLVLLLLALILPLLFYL", "assay": "FACS titration on HEK-EBNA cells transfected with the construct"}, "[7]": {"biological_target": "T2, human MCSP (melanoma chondroitin …)", "assay": "FACS titration on A375 melanoma cells, FITC anti-human IgG Fc secondary antibody", "description": "as §2"}, "[8]": {"biological_target": "T5, human MCSP D3 domain expression construct (human, UniProt Q6UVK1 1582-2224, limits assumed)", "T5 construct": "Built like the cynomolgus construct (signal peptide, N-terminal FLAG-tag); also called corresponding human expression construct; human counterpart", "T5 sequence": "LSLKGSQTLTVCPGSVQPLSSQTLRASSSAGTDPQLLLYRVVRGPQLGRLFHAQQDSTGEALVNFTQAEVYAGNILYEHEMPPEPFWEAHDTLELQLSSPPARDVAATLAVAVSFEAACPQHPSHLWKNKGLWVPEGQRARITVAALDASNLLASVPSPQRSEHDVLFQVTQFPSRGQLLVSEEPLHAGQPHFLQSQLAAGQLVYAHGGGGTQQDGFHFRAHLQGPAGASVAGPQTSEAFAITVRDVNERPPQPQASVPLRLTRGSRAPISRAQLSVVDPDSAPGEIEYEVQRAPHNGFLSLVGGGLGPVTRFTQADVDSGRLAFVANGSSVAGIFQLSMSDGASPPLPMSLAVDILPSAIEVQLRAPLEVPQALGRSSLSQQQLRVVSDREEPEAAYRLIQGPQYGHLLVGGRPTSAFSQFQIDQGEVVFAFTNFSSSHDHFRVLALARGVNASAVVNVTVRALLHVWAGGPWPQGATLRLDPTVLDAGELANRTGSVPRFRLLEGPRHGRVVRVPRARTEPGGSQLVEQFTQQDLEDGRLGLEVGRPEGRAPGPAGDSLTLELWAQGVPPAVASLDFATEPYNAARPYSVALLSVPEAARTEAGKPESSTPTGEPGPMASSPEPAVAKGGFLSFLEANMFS", "assay": "flow cytometry titration on HEK-EBNA cells electroporated with the FLAG-tagged D3 domain construct", "text": "(§3) An expression construct was generated that included the C-terminal part of the cynomolgus MCSP protein, a signal peptide for secretion and a N-terminal FLAG-tag (SEQ ID NO: 8) to test for crossreactivity towards the cynomolgus antigen. This domain was referred to as the D3 domain Tillet, F. et. Al, J. Biol. Chem. 272: 10769-10776 (1997). A similar construct was done for the human counterpart (SEQ ID NO: 9). An expression plasmid encoding for these two construct was electroporated into HEK-EBNA cells, and expression was confirmed with an anti-FLAG antibody. Binding of LC007 antibody was then tested by flow cytometry."}, "[9]": {"biological_target": "T6, cynomolgus MCSP D3 domain expression construct (cynomolgus, UniProt Q6UVK1 1582-2224 (human entry), limits assumed)", "T6 construct": "also called cynomolgus construct; cynomolgus antigen", "T6 chain": "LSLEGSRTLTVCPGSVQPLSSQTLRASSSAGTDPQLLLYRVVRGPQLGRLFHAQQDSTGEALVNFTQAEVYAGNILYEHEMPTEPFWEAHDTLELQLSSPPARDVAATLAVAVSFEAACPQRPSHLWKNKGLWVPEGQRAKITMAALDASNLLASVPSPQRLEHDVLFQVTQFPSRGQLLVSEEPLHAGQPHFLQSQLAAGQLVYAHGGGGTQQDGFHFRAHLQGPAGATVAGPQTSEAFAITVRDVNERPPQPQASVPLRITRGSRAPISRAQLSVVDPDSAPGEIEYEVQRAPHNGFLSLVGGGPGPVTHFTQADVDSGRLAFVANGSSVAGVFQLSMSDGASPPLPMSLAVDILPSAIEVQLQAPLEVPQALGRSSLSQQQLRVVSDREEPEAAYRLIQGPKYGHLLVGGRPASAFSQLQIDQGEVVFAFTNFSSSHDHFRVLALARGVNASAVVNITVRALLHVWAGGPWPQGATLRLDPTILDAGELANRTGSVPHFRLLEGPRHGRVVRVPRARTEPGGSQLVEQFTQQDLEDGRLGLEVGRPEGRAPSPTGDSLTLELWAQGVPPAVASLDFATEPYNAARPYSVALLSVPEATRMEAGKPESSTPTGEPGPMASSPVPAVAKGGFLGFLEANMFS", "assay": "flow cytometry titration on HEK-EBNA cells electroporated with the FLAG-tagged D3 domain construct", "text": "as §3"}}, "data": [{"binder": "humanized variant M4-3 ML2 (antibody, human IgG1, kappa, V domains shown, also called M4-3 ML2 antibody) VH: QVQLQESGPGLVKPSQTLSLTCTVSGGSITSGYYWNWIRQHPGKGLEWIGYITYDGSNNYNPSLKSRVTISRDTSKNQFSLKLSSVTAADTAVYYCADFDYWGQGTLVTVSS VL: DIQMTQSPSSLSASVGDRVTITCRASQGIRNYLNWYQQKPGKAPKLLIYYTSSLHSGVPSRFSGSGSGTDFTLTISSLQPEDFATYYCQQYSKLPWTFGQGTKVEIKR", "values": [{"measurement": "Kd", "setting": "[1]", "value": 16.6, "unit": "nM"}, {"measurement": "Kd", "setting": "[2]", "value": 11.4, "unit": "nM"}]}, {"binder": "chimeric antibody LC007 (antibody, human IgG1, kappa, V domains shown, also called LC007 antibody; chimeric LC007) VH: EVQLQESGPGLVKPSQSLSLTCSVTGYSITSGYYWNWIRQFPGNKLEWMGYITYDGSNNYNPSLKNRISITRDTSKNQFFLKLNSVTTEDTATYYCADFDYWGQGTTLTVSS VL: DIVLTQSPSSLSASLGDRVTISCSASQGIRNYLNWYQQRPDGTVKLLIYYTSSLHSGVPSRFSGSGSGTDYSLTISNLEPEDIATYYCQQYSKLPWTFGGGTKLEIKR", "values": [{"measurement": "EC50 (read off the curve)", "setting": "[3]", "value": "~0.03", "unit": "µg/mL"}, {"measurement": "EC50 (read off the curve)", "setting": "[4]", "value": "~0.05", "unit": "µg/mL"}, {"measurement": "binding result", "setting": "[5]", "value": "no binding (tested: 5 ug/ml)"}, {"measurement": "EC50 (read off the curve)", "setting": "[6]", "value": "~0.3", "unit": "µg/mL"}, {"measurement": "Kd", "setting": "[1]", "value": 10.8, "unit": "nM"}, {"measurement": "EC50 (read off the curve)", "setting": "[7]", "value": "~0.05", "unit": "µg/mL"}, {"measurement": "Kd", "setting": "[2]", "value": 9.8, "unit": "nM"}, {"measurement": "EC50 (read off the curve)", "setting": "[8]", "value": "~0.08", "unit": "µg/mL"}, {"measurement": "EC50 (read off the curve)", "setting": "[9]", "value": "~0.1", "unit": "µg/mL"}]}]}
